Results published in publication PMC9352680, “A comprehensive thermodynamic model for RNA binding by the Saccharomyces cerevisiae Pumilio protein PUF4”.

T1: PUF4 RNA-binding domain (Saccharomyces cerevisiae, UniProt P25339 537-888)
T1 sequence: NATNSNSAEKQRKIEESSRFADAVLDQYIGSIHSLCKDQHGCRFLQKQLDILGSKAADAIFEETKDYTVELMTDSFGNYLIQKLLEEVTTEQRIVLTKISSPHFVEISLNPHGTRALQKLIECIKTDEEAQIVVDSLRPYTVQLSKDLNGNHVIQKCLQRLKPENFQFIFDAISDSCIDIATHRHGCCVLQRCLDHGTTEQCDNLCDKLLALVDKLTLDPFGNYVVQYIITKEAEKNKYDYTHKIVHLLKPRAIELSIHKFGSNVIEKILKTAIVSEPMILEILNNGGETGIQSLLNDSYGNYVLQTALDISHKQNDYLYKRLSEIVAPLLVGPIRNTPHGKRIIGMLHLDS


Biological target: T1, PUF4 RNA-binding domain
Assay: Mg; RNA-MaP; 20 mM Na-HEPES pH 7.4, 30 mM KOAc, 0.75 mM MgCl2, 0.1% Tween-20, 5% glycerol, 0.1 mg/mL BSA, 2 mM DTT; 25 C; 0.0125-409.6 nM protein
Conditions: tags: N-His6-TEV cleaved; C-SNAP kept, Cy3B-labelled; label: tethered on chip by stalled RNA polymerase

Binder	Kd
UCUCUUUGUAAGCCUCUCUU (ssRNA) [Ic_S1_P3E.1_K3.1_C3.1_H3.1_A3.1_[T5A]_[A6G]_F3.1_[T7C]_[A8C]_T3.1]	1550 nM
UCUCUUUGUAGUACUCUCUU (ssRNA) [Ic_S1_P3E.1_K3.1_C3.1_H3.1_A3.1_[T5G]_[A6T]_F3.1_[T7A]_[A8C]_T3.1]	1210 nM
UCUCUUUGUAGUCCUCUCUU (ssRNA) [Ic_S1_P3E.1_K3.1_C3.1_H3.1_A3.1_[T5G]_[A6T]_F3.1_[T7C]_[A8C]_T3.1]	2000 nM
UCUCUUUGUACCGUUCUCUU (ssRNA) [Ic_S1_P3E.1_K3.1_C3.1_H3.1_A3.1_[T5C]_[A6C]_F3.1_[T7G]_[A8T]_T3.1]	391 nM
UCUCUUUGUAAGCGUCUCUU (ssRNA) [Ic_S1_P3E.1_K3.1_C3.1_H3.1_A3.1_[T5A]_[A6G]_F3.1_[T7C]_[A8G]_T3.1]	1910 nM
UCUCUUUGUACUGCUCUCUU (ssRNA) [Ic_S1_P3E.1_K3.1_C3.1_H3.1_A3.1_[T5C]_[A6T]_F3.1_[T7G]_[A8C]_T3.1]	842 nM
UCUCUUUGUAGUAAUCUCUU (ssRNA) [Ic_S1_P3E.1_K3.1_C3.1_H3.1_A3.1_[T5G]_[A6T]_F3.1_[T7A]_T3.1]	1270 nM
UCUCUUUGUACACGUCUCUU (ssRNA) [Ic_S1_P3E.1_K3.1_C3.1_H3.1_A3.1_[T5C]_F3.1_[T7C]_[A8G]_T3.1]	27.2 nM
UCUCUUUGUACGGCUCUCUU (ssRNA) [Ic_S1_P3E.1_K3.1_C3.1_H3.1_A3.1_[T5C]_[A6G]_F3.1_[T7G]_[A8C]_T3.1]	1730 nM
UCUCUUUGUACAGCUCUCUU (ssRNA) [Ic_S1_P3E.1_K3.1_C3.1_H3.1_A3.1_[T5C]_F3.1_[T7G]_[A8C]_T3.1]	76.7 nM
UCUCUUUGUACUGGUCUCUU (ssRNA) [Ic_S1_P3E.1_K3.1_C3.1_H3.1_A3.1_[T5C]_[A6T]_F3.1_[T7G]_[A8G]_T3.1]	1060 nM
UCUCUUUGUAACGCUCUCUU (ssRNA) [Ic_S1_P3E.1_K3.1_C3.1_H3.1_A3.1_[T5A]_[A6C]_F3.1_[T7G]_[A8C]_T3.1]	996 nM
UCUCUUUGUAAGCUUCUCUU (ssRNA) [Ic_S1_P3E.1_K3.1_C3.1_H3.1_A3.1_[T5A]_[A6G]_F3.1_[T7C]_[A8T]_T3.1]	653 nM
UCUCUUUGUACCCCUCUCUU (ssRNA) [Ic_S1_P3E.1_K3.1_C3.1_H3.1_A3.1_[T5C]_[A6C]_F3.1_[T7C]_[A8C]_T3.1]	953 nM
UCUCUUUGUACGGUUCUCUU (ssRNA) [Ic_S1_P3E.1_K3.1_C3.1_H3.1_A3.1_[T5C]_[A6G]_F3.1_[T7G]_[A8T]_T3.1]	385 nM
UCUCUUUGUACCACUCUCUU (ssRNA) [Ic_S1_P3E.1_K3.1_C3.1_H3.1_A3.1_[T5C]_[A6C]_F3.1_[T7A]_[A8C]_T3.1]	192 nM

Binder	Kd
UCUCUUUGUACGCCUCUCUU (ssRNA) [Ic_S1_P3E.1_K3.1_C3.1_H3.1_A3.1_[T5C]_[A6G]_F3.1_[T7C]_[A8C]_T3.1]	719 nM
UCUCUUUGUACUAAUCUCUU (ssRNA) [Ic_S1_P3E.1_K3.1_C3.1_H3.1_A3.1_[T5C]_[A6T]_F3.1_[T7A]_T3.1]	77.4 nM
UCUCUUUGUACGAUUCUCUU (ssRNA) [Ic_S1_P3E.1_K3.1_C3.1_H3.1_A3.1_[T5C]_[A6G]_F3.1_[T7A]_[A8T]_T3.1]	29.9 nM
UCUCUUUGUACACUUCUCUU (ssRNA) [Ic_S1_P3E.1_K3.1_C3.1_H3.1_A3.1_[T5C]_F3.1_[T7C]_[A8T]_T3.1]	9.72 nM
UCUCUUUGUAACGUUCUCUU (ssRNA) [Ic_S1_P3E.1_K3.1_C3.1_H3.1_A3.1_[T5A]_[A6C]_F3.1_[T7G]_[A8T]_T3.1]	534 nM
UCUCUUUGUACGUUUCUCUU (ssRNA) [Ic_S1_P3E.1_K3.1_C3.1_H3.1_A3.1_[T5C]_[A6G]_F3.1_[A8T]_T3.1]	40.7 nM
UCUCUUUGUACUACUCUCUU (ssRNA) [Ic_S1_P3E.1_K3.1_C3.1_H3.1_A3.1_[T5C]_[A6T]_F3.1_[T7A]_[A8C]_T3.1]	349 nM
UCUCUUUGUAGUCAUCUCUU (ssRNA) [Ic_S1_P3E.1_K3.1_C3.1_H3.1_A3.1_[T5G]_[A6T]_F3.1_[T7C]_T3.1]	2020 nM
UCUCUUUGUACUAUUCUCUU (ssRNA) [Ic_S1_P3E.1_K3.1_C3.1_H3.1_A3.1_[T5C]_[A6T]_F3.1_[T7A]_[A8T]_T3.1]	9.51 nM
UCUCUUUGUAACCCUCUCUU (ssRNA) [Ic_S1_P3E.1_K3.1_C3.1_H3.1_A3.1_[T5A]_[A6C]_F3.1_[T7C]_[A8C]_T3.1]	975 nM
UCUCUUUGUACUCUUCUCUU (ssRNA) [Ic_S1_P3E.1_K3.1_C3.1_H3.1_A3.1_[T5C]_[A6T]_F3.1_[T7C]_[A8T]_T3.1]	44.3 nM
UCUCUUUGUACGAAUCUCUU (ssRNA) [Ic_S1_P3E.1_K3.1_C3.1_H3.1_A3.1_[T5C]_[A6G]_F3.1_[T7A]_T3.1]	891 nM
UCUCUUUGUAGUCUUCUCUU (ssRNA) [Ic_S1_P3E.1_K3.1_C3.1_H3.1_A3.1_[T5G]_[A6T]_F3.1_[T7C]_[A8T]_T3.1]	513 nM
UCUCUUUGUACCUCUCUCUU (ssRNA) [Ic_S1_P3E.1_K3.1_C3.1_H3.1_A3.1_[T5C]_[A6C]_F3.1_[A8C]_T3.1]	157 nM
UCUCUUUGUACACCUCUCUU (ssRNA) [Ic_S1_P3E.1_K3.1_C3.1_H3.1_A3.1_[T5C]_F3.1_[T7C]_[A8C]_T3.1]	41.8 nM
UCUCUUUGUACCUGUCUCUU (ssRNA) [Ic_S1_P3E.1_K3.1_C3.1_H3.1_A3.1_[T5C]_[A6C]_F3.1_[A8G]_T3.1]	115 nM
